The values below are quoted from earlier work in patent publication US20180134803A1, “TREATMENT OF HER2-POSITIVE BREAST CANCER” (Genentech, Inc., priority 2016, published 2018).

Data set [1] deals with incurable, locally advanced, recurrent or metastatic solid tumors.
The conditions of data set [2]: in vivo.

As for “Pertuzumab: antibody comprising the variable light and variable heavy amino acid sequences in SEQ ID NOs: 7 and 8; HER dimerization inhibitor”, in data set [1] (Phase I, IV every 3 weeks), the confirmed partial responses result is “Two” and the “tumor regression, patients evaluable for response” value is listed as 3 of 20. Moreover, the tolerability entry in data set [1] (in vivo, iv) was “generally well tolerated”. Besides, in data set [2], the mean clearance is 2.69 to 3.74 mL/day/kg and the “mean terminal elimination half-life” value was 15.3 to 27.6 days.
